Changes are numbered by the printed parent chain. Like-named read-outs stand apart in the source and are kept apart here.
T1: hFc-hFasL (fusion protein of human Fc fragment and human FasL extracellular region) (human, UniProt P48023 134-281)
T1 construct: the order here follows the name hFc-hFasL; also called hFc-FasL; hFc-hFasL antigen; not shown: human Fc fragment tag
T1 sequence: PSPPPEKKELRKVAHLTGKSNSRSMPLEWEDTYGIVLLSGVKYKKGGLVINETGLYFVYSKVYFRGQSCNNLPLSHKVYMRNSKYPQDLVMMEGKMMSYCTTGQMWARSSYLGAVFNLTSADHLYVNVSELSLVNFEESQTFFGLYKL

B1: FL-M05 (antibody, V domains shown)
VH: EVQLQQSGAELVRPGVSVKISCKGSGYTFTDYTMHWVKQSHAKSLEWIGVISTYQGDARYNQKFKGKATMTVDKSSSTAYMELARLTSEDSAIYYCARFPDWDYAMDYWGQGTSVTVSS
VL: DIVLTQSPASLAVSLGQRATISCKASQSVDYDGDSYMNWYQQKPGQPPKLLIYAASNLESGIPARFSGSGSGTDFTLNIHPVEEEDAATYYCQHSRELPYTFGGGTKLEIK
notes: Chimeric full-length antibody, tested as human IgG4 / human kappa
B2: FL-M08 (antibody, V domains shown)
VH: B1 VH with E1Q, V2I, Q5L, T33A, R59N
VL: B1 VL with D1E
notes: as for B1
B3: FL-M89 (antibody, V domains shown)
VH: B1 VH with M34I, R59S
VL: B1 VL with L4M, H94Q
notes: as for B1
B4: APG101 (Fas fusion protein, Apogenix) (Fc fusion, UniProt P25445 26-172, looked up)
chain: QVTDINSKGLELRKTVTTVETQNLEGLHHDGQFCHKPCPPGERKARDCTVNGDEPDCVPCQEGKEYTDKAHFSSKCRRCRLCDEGHGLEVEINCTRTQNTKCRCKPNFFCNSTVCEHCDPCTKCEHGIIKECTLTSNTKCKEEGSRS
notes: also called Fas-Fc fusion protein APG101; FasL antagonist APG101; not shown: Fc part of APG101
B5: FL-M78 (antibody, V domains shown)
VH: DVQLQESGGGLVQPGGSRKLSCAASGFTFSSYDMSWVRQTPEKRLEWVAFISSGGGSTYYPDTVKGRFTISRDNAKNTLYLQMSSLKSEDSAMYYCGRHYDNYLYAMDYWGQGTSVTVSS
VL: DIVMTQSPASQSASLGESVTITCLASQTIGTWLAWYQQKPGKSPQLLIYAATSLADGVPSRFSGSGSGTKFSFKISSLQAEDFVSYYCQQLYSTPFTFGGGTKLEIK
notes: as for B1
B6: humFL-M88-1 (antibody, human IgG4, V domains shown)
VH: QVQLVQSGAEVKKPGASVKVSCKGSGYTFTDYTIHWVRQAPGQGLEWIGVISTYQGDASYNQKFKGRATMTVDKSTSTAYMELSSLRSEDTAVYYCARFPDWDYAMDYWGQGTLVTVSS
VL: EIVMTQSPATLSVSPGERATLSCKASQSVDYDGDSYMNWYQQKPGQPPRLLIYAASNLESGIPARFSGSGSGTEFTLTISSLQSEDFAVYYCQHSRELPYTFGQGTKLEIK
notes: Humanized FL-M88
B7: humFL-M88-6 (antibody, human IgG4, V domains shown)
VH: B6 VH with G24A, I48M, A68V, K74T, A79V
VL: B6 VL
notes: Humanized FL-M88
B8: humFL-M88-9 (antibody, human IgG4, V domains shown)
VH: B6 VH with I48M
VL: B6 VL with P47A
notes: Humanized FL-M88
B9: humFL-M88-18 (antibody, human IgG4, V domains shown)
VH: B6 VH with G24A, I48M, A68V, K74T, A79V
VL: B6 VL with H94Q
notes: Humanized FL-M88
B10: humFL-M88-12 (antibody, human IgG4, V domains shown)
VH: B6 VH with G24A, I48M, A68V, K74T, A79V
VL: B6 VL with P47A
notes: Humanized FL-M88
B11: humFL-M88-15 (antibody, human IgG4, V domains shown)
VH: B6 VH with I48M
VL: B6 VL with H94Q
notes: Humanized FL-M88
B12: humFL-M88-7 (antibody, human IgG4, V domains shown)
VH: B6 VH
VL: B6 VL with P47A
notes: Humanized FL-M88
B13: humFL-M88-3 (antibody, human IgG4, V domains shown)
VH: B6 VH with I48M
VL: B6 VL
notes: Humanized FL-M88
B14: humFL-M88-13 (antibody, human IgG4, V domains shown)
VH: B6 VH
VL: B6 VL with H94Q
notes: Humanized FL-M88
B15: humFL-M88-5 (antibody, human IgG4, V domains shown)
VH: B6 VH with I48M, A68V, A79V
VL: B6 VL
notes: Humanized FL-M88
B16: FL-M54 (antibody, V domains shown)
VH: EVQLQQSGVELVKPGASVKLSCKASGYTFTRFDISWVRQRPEQGLEWIGWIFPGDGSSQYNENFKGKATLTTDKSSGTAYMQLNRLTSEDSAVYFCARSLISTAMFDHWGQGTTLTVSS
VL: DIVMTQSPASLAVSLGQRATISCRASKSVSTSDFSYIHWYQQKPGQPPKLLIFLASHLESGVPARFSGSGSGTDFTLNIHPVEEEDAATYYCQHSRELPRTFGGGTKLEIK
notes: as for B1
B17: FL-M56 (antibody, V domains shown)
VH: B16 VH with V9P, S58T
VL: B16 VL with M4L, Q46L
notes: as for B1

Key:
[1] = target: hFc-hFasL (fusion protein of human Fc fragment and human FasL extracellular region) (human) (UniProt P48023); assay: ELISA, hFc-hFasL coated, sample titrated (detection for this reference not separately stated)
[2] = target: hFc-hFasL (fusion protein of human Fc fragment and human FasL extracellular region) (human) (UniProt P48023); assay: cell-based or functional assay
[3] = target: T1, hFc-hFasL (fusion protein of human Fc …); assay: ELISA, hFc-hFasL coated, antibody titrated, anti-human kappa-HRP
[4] = target: T1, hFc-hFasL (fusion protein of human Fc …); assay: cell-based or functional assay
[5] = target: T1, hFc-hFasL (fusion protein of human Fc …); assay: cell-based or functional assay; remark: listed apart in the source
[6] = target: T1, hFc-hFasL (fusion protein of human Fc …); assay: cell-based or functional assay; remark: listed apart in the source
[7] = target: T1, hFc-hFasL (fusion protein of human Fc …); assay: ELISA, hFc-hFasL coated, sample titrated (detection for this reference not separately stated)
[8] = target: T1, hFc-hFasL (fusion protein of human Fc …); assay: ELISA, hFc-hFasL coated, antibody titrated, anti-human kappa-HRP (protocol of Example 3.2)
[9] = target: T1, hFc-hFasL (fusion protein of human Fc …); assay: cell-based or functional assay; remark: listed apart in the source
[10] = target: T1, hFc-hFasL (fusion protein of human Fc …); assay: cell-based or functional assay; remark: listed apart in the source
[11] = target: T1, hFc-hFasL (fusion protein of human Fc …); assay: cell-based or functional assay; remark: listed apart in the source

Row | Molecule | EC50 [3] | IC50(nM), FasL antigen-induced apoptosis of Jurkat cells (CellTiter-Glo ATP) [4] | EC50(nM), FasL antigen-induced NF-κB signaling pathway activation (SEAP, HepG2-Dual) [5] | IC50(nM), FasL antigen-induced apoptosis of HepG2 cells (CellTiter-Glo ATP) [6] | EC50 [8] | HepG2 IC50(nM), FasL antigen-induced cell apoptosis [9] | Jurkat IC50(nM), FasL antigen-induced cell apoptosis [9] | further results
1 | MAB126-100 (commercial anti-FasL antibody, RD) | – | – | – | – | – | – | – | EC50 [1]: 0.948 nM; HepG2 IC50(nM), FasL antigen-induced cell apoptosis [2]: 0.074 nM; IC50(nM), FasL antigen-induced apoptosis of HepG2 cells (CellTiter-Glo ATP) [2]: 0.099 nM; Jurkat IC50(nM), FasL antigen-induced cell apoptosis [2]: 0.046 nM
2 | B1 | 0.186 nM | 0.109 nM | 1.13 nM | 0.03 nM | – | – | – | –
3 | B2 | 0.157 nM | 0.035 nM | 0.704 nM | 0.016 nM | – | – | – | –
4 | B3 | 0.441 nM | 0.023 nM | 1.33 nM | 0.021 nM | – | – | – | –
5 | B4 | – | > 100 nM | 7.23 nM | 11.3 nM | – | – | – | EC50 [7]: 23.5 nM
6 | B5 | 0.811 nM | 0.023 nM | 3.01 nM | 0.016 nM | – | – | – | –
7 | B6 | – | – | – | – | 0.265 nM | 0.0125 nM | 0.0193 nM | EC50(nM), FasL antigen-induced NF-κB signaling pathway activation [10]: 0.454 nM
8 | B7 | – | – | – | – | 0.235 nM | 0.0204 nM | – | –
9 | B8 | – | – | – | – | 0.284 nM | 0.0225 nM | 0.022 nM | –
10 | B9 | – | – | – | – | 0.272 nM | – | 0.0325 nM | –
11 | B10 | – | – | – | – | 0.276 nM | – | 0.0234 nM | –
12 | B11 | – | – | – | – | 0.301 nM | 0.0143 nM | 0.0149 nM | EC50(nM), FasL antigen-induced NF-κB signaling pathway activation [10]: 0.47 nM
13 | B12 | – | – | – | – | 0.34 nM | 0.0274 nM | – | –
14 | B13 | – | – | – | – | 0.273 nM | 0.0276 nM | 0.0192 nM | EC50(nM), FasL antigen-induced NF-κB signaling pathway activation [10]: 0.444 nM
15 | B14 | – | – | – | – | 0.302 nM | 0.0126 nM | 0.0243 nM | EC50(nM), FasL antigen-induced NF-κB signaling pathway activation [10]: 0.698 nM
16 | B15 | – | – | – | – | 0.23 nM | 0.0222 nM | 0.0186 nM | –
17 | B16 | 0.725 nM | 0.018 nM | 1.97 nM | 0.018 nM | – | – | – | HepG2 IC50(nM), FasL antigen-induced cell apoptosis [11]: 0.023 nM; Jurkat IC50(nM), FasL antigen-induced cell apoptosis [11]: 0.023 nM
18 | B17 | 0.661 nM | 0.02 nM | 2.73 nM | 0.02 nM | – | – | – | –

Source: patent US20250101120A1 (BEIJING SOLOBIO GENETECHNOLOGY, published 2025)
